Measurements as given in patent publication US20110113509, “RATIONALLY-DESIGNED MEGANUCLEASES FOR MAIZE GENOME ENGINEERING” (PRECISION BIOSCIENCES, INC., published 2011).

Key:
LIG-34+ meganuclease = molecular target: T1, LIG-34+ meganuclease (Artificial Sequence (derived from …)); experiment: cleavage_in_vitro; C50, enzyme to cut 50% of 10 nM linearized pUC19 substrate in 1 h; 37 C, SA buffer pH 8.0, 100 mM NaCl, 5 mM MgCl2, 5 mM EDTA; details: tags: C-terminal 6xHis; N-terminal SV40 NLS; inferred)
T1 chain: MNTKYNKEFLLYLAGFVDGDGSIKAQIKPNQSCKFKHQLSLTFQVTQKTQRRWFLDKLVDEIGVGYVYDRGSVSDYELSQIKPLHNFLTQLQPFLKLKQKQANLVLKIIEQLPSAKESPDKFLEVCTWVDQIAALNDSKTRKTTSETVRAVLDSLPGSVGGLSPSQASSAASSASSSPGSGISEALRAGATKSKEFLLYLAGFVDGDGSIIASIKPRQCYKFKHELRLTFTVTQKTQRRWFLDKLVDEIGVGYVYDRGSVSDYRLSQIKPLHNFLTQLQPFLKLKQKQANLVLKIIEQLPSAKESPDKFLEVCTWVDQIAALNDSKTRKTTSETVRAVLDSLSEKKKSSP
Method: (§1) The LIG-34 meganucleases were assayed for in vitro activity by incubation with linear, double-stranded DNA substrates containing the meganuclease recognition sequence. Synthetic oligonucleotides corresponding to both sense and antisense strands of the LIG-34 recognition site (SEQ ID NO: 2, SEQ ID NO: 3) were annealed and cloned into the SmaI site of the pUC19 plasmid by blunt-end ligation. The plasmid substrate was linearized with XmnI concurrently with the meganuclease digest. The enzyme digests contained 5 μl of 0.05 μM DNA substrate, 5 μl of meganuclease at varying concentrations (diluted in SA buffer, see below), 14.5 μl SA buffer, and 0.5 μl XmnI. LIG-34 enzyme concentration was varied from 5-400 nM (final concentration). Digests were incubated at 37° C. for 1 hour. Digests were stopped by adding 0.3 mg/ml Proteinase K and 0.5% SDS, and incubated for one hour at 37° C. Digests were analyzed on 1.5% agarose and visualized by ethidium bromide staining.
(§2) Digestion of the linearized plasmid with LIG34, LIG34+ or LIG34++ meganuclease produced two bands on the gel of the sizes corresponding to a simple cut at the LIG-34 site. All of the LIG-34 meganucleases efficiently cut the plasmid substrate harboring the LIG-34 recognition site. […] Thus, while all three enzymes efficiently cleave the LIG-34 site sequence, they do so with varying activity levels (LIG-34<LIG-34+<LIG-34++).

LIG-34 meganuclease = molecular target: T2, LIG-34 meganuclease (Artificial Sequence (derived from …)); experiment: as above; details: tags: C-terminal 6xHis; N-terminal SV40 NLS; inferred)
T2 chain: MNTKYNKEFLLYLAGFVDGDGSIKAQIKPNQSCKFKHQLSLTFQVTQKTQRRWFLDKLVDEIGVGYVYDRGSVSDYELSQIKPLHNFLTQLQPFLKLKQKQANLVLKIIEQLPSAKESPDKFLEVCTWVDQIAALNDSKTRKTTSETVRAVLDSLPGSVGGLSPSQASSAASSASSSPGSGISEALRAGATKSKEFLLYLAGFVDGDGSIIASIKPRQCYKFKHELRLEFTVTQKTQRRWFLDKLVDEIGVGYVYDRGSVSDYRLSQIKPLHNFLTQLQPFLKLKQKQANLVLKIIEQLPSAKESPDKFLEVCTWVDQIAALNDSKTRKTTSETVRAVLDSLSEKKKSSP
Method: as §1, §2

B1: LIG-34 recognition site (dsDNA)
DNA 1: TACGCGTACGTGTGAGGTATAT
DNA 2: ATATACCTCACACGTACGCGTA
EC50 (LIG-34+ meganuclease): ~13 nM | EC50 (LIG-34 meganuclease): ~16 nM
